The supplement of paper PMC9732359
± gives the uncertainty stated by the source.

Test: protein stability index of a GFP-peptide fusion (yeast GPS) (PSI 1-4); higher = more stable; sorted into four equal gates, so the index is relative within each strain
Procedure, shortened: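 Tiled 17-residue yeast protein peptides were fused downstream of GFP in a plasmid that also expresses Cherry, and the pooled library was carried in yeast. Mid-log cultures in leucine-free medium were sorted into four equal gates by GFP/Cherry fluorescence ratio, and plasmids from each gate were PCR-amplified and Illumina-sequenced, with reads assigned to strains by barcodes. The protein stability index for each peptide was each gate's read frequency times its gate number, summed.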

| Sequence | protein stability index (doa10∆) | protein stability index (pdr5∆) | protein stability index (san1∆) | protein stability index (ubr1∆) |
| --- | --- | --- | --- | --- |
| QELELPGEFVTAIAHSI [SNF5] | 2.36 ± 0.049 | 2.37 ± 0.038 | 2.38 ± 0.038 | 2.4 ± 0.043 |
| KSKFNKSNRSYSIALSN [GAL11] | 2.85 ± 0.075 | 2.47 ± 0.13 | 3.1 ± 0.12 | 2.81 ± 0.064 |
| PTGGKAKLSEGTSFRRK [RPS27A] | 3.4 ± 0.081 | 3.33 ± 0.11 | 3.33 ± 0.065 | 3.33 ± 0.059 |
| SLKALASKYNCDKSVCR [RPL40A] | 3.08 ± 0.069 | 2.97 ± 0.089 | 3.12 ± 0.054 | 2.94 ± 0.087 |
| SKQPNSAIRKCVRVQLI [RPS23A] | 2.69 ± 0.078 | 2.77 ± 0.064 | 1.79 ± 0.096 | 2.96 ± 0.045 |
| NSTGHSSNTNNNTNNNN [SWI1] | 3.48 ± 0.069 | 3.26 ± 0.066 | 3.17 ± 0.054 | 3.33 ± 0.063 |
| DQFIRHVLRGVESPDKN [YCG1] |  | 3.77 ± 0.2 | 3.18 ± 0.14 |  |
| ISTLFQRDRHTLAYDRG [PRP8] | 2.58 ± 0.14 | 3.21 ± 0.13 | 2.68 ± 0.082 | 2.79 ± 0.058 |
| SVDPQSSSTQNVFVILM [DIS3] | 2.83 ± 0.16 | 2.43 ± 0.17 | 2.7 ± 0.075 | 2.92 ± 0.099 |
| NTAPGLGNTVSTQPSFA [YGR119C/NUP57] | 3.04 ± 0.11 | 2.96 ± 0.079 | 2.9 ± 0.098 | 3.04 ± 0.056 |
| YPVRIPRLDTSKEFSAY [YJR042W/NUP85] | 2.84 ± 0.077 | 2.4 ± 0.061 | 2.51 ± 0.075 | 2.91 ± 0.058 |
| NMFELAQQLVGVYKRDN [SMC4] | 1.08 ± 0.11 | 1.61 ± 0.12 | 1.61 ± 0.16 | 1.37 ± 0.13 |
| NYFVDTDLKKIIKANQL [RET1] | 2.88 ± 0.058 | 2.85 ± 0.066 | 3.01 ± 0.044 | 2.53 ± 0.036 |
| LPLFYDLLNAASIESAD [IRR1] | 2.08 ± 0.047 | 2.17 ± 0.056 | 2.27 ± 0.047 | 2.78 ± 0.048 |
